# System: K4 kissing-loop RNA reporter
# Assay: apparent KD of K4 kissing-loop reporter; higher = weaker reporter binding
# Settings: Eterna round: R107; input ligand: theophylline 20 uM
# Protocol: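 RNA-MaP round R107: designed RNA switches with theophylline, tryptophan, arginine or FMN aptamers are transcribed on-chip within common flanks. They are titrated with a labelled K4 kissing-loop RNA reporter in RNA-MaP buffer (100 mM Tris pH 7.5, 80 mM KCl, 4 mM MgCl2), without ligand or with the indicated ligand. Median apparent KD per design.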
# 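Note: bound reporter read as fluorescence of individual clusters on recovered sequencing chips by microscopy, with normalized cluster intensities fitted with a binding model.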
row,Sequence,apparent KD of K4 kissing-loop reporter
1,ACGCUAGCUACCGAAAGGUAGCUAGCGAGUGAGGAUAUGUGGAAACACAGAAGGCACAGCGCAGUGAUGUUGUGCGGCGGAAGCG [whbob_SS_FMNA__2th168],664 nM
2,UGUGAUGAGUAGAGUGAUGUUUUGAAGGAUACCAGAGUGUUGUUAUUCCCUUGGCAGCUUGAGUGAUGUUUGAUGUUGUUGUUGU [rcrrmullin],205 nM
3,UAGUGGUAGACCAGAUCUACCACUAGGGAUACCAGCCUCGGUCGAGGCCCUUGGCAGCCCAGCGGGUCCAGUGAUGUUGGAUGUC [Raanza],194 nM
4,AUGUGGAGCGACGUUUAGAGAAACCGGGAAGGAGCGCGGAUAACCGCAGGUAGGUCGCCUGGUUGCCAGUGAUGUUGGCGACGUG [Exclusion Arg A GF 25],96 nM
5,UGUCAUUGGUCUGAUACCAGUUAGACCGAUAGGUCAAAACUGGAGUGAUGUUCCCAAAAUAACCCUUGGCAGCAGACCGAUGACU [TheoBS 3 #SwitchBubble #StaticStem],282 nM
6,UGAUACCAGACGGCCGCCACUCCCGUAAGUCAAAGACUUACGAAGAGAAUCGUCCAGUGAUGUUGGAGGACCGGGUCUGGUAUCU [FiskerMod 11 - Jieux - Exclusion - Tryptophan B],600 nM
7,UGUGUUUACCUGACUCAGUGAUGUUGAGAAGGAGCGUGGGAAACCACAGGUAGGUCGCUCAACCUAAAUUCAGGUGAGCACUAAA,303 nM
8,UGAUACCAGACUGAUACCAGCCACAGAGUCAAGACUCUGAUAAAGGUAACCAGUGAUGUUGGCCCUUGGCAGCAGUCUGGUAUCU [TheoBX 16 #SwitchBubble #StaticStem],149 nM
9,GGUGUUGUUUGUGCUGUUUUCUUCGUUUCUCGAGGACCGGUACGGCCGCCACUCGAGUGAUGUUUGGGUAGCGAUCUUUGUUAGU [Bdazzled - #4- Exc. Tryptophan A],339 nM
10,CCAGAAUAAUGAAGAUGAUAAAUUACUGAAGGAGCGCAUAUAGUUGCAGGUAGGUCGCGGUGAAUAAGUAUAGUGAUGUUAUACC [SSArgA.Ad],260 nM
11,AAGUGUGUGGCGGCCGCCACUAGAAUCCAGUGAUGUUGGAGUUAUCAUGUAAAUGAUAAUCAACAUAGGACCGGGCCAUAUAGAA [Same State - Tryptophan B (Freestyle 8)],441 nM

# Same assay, conditions: Eterna round: R107; input ligand: tryptophan 2.4 mM
row,Sequence,apparent KD of K4 kissing-loop reporter
1,AUUUUGGUUGAAGGAUAUUCUCCCAUCGACGCGAUAAGAUACUUUGGAAGGUUUGCAGUGAUGUUGGAAGAAGGUCAAAGUUGUA [theeternabot_exclusion_KL_FMN_B_22],523 nM
2,ACGAUCAUGGCAGGAUAUACGAAUGCAUUAGGGCUGCCAGUGAUGUUGGUGGACCGAGGACGUAGAGUAGAAGGGCCGACUUAAA [Leonmain],157 nM
3,GUAUAUUAGGGAGACCUAAUAUAAAUAGAAGGAGCGUAGGAAACUACAGGUAGGUCGCUAAAUAUACAGUGAUGUUGUAUAAUGG [arg a same],141 nM
4,AUGGGCGAGGUAACGUGGAUAUCUCGUCGCAAGGAUAUCUGGAAACAGAGAAGGUGCUACAUUACCGGCAGUGAUGUUGCUGACC,131 nM
5,UUAGAGAUCUCAGGAUAUCAGUGAUGUUGUAAUCCAGAUCUGAGAUAGAAUUCUAUCUCAGAUCAAUGAGAAGGGAGAUCUCAUU [AK4.2 Exc FMN B],591 nM
6,CGCCGCAAGGCGGUCCUGCCCACUCCGGAAGGAGCGCCCGCAAGGGCAGGUAGGUCGCCGGAGUGAUGUUCCGGUGGCAGGACCG [#2 Exclusion - Arginine A Attempt #4 (Inspired by Omei)],245 nM
7,UCACAAGUUAACUAGUGAUGUUAGUUAGUACGAGGACCGGUACGGCCGCCACUCGAAAAGUGGUUUUACGGACUUUUGGGCAGGC [theeternabot_sameState_KL_Trp_A_17],260 nM
8,GUAGACAGACUGCAAGCCUAGUCUACAGACUAGGAUAUCAGGAAACUGAGAAGGAGUCUAGUUGCAGUGAUGUUGCAAGAAUAAU [KL-SSFMN-A24],99.8 nM
9,UAGCUCUACAGAAGGAGCGACGUUCUUAGACAGUGAUGUUGUCUAUAGUGAAUAUAGGAACGUCAGGUAGGUCGCUGUAGAGCUA [Arg B SS t11],164 nM
10,UUAUCACCCUAAGGAUAUAGCUAAGUGAUGUUUAGCUCGUCGCAGGGUAAACACUAGGCCCAAAGGCUAGAAGGUAGCUGGUACC [theeternabot_exclusion_KL_FMN_B_35],69.6 nM
11,CUGGGUUGACGAAAAGUCAACAAAUGAGAAGGAGCGCACGAAAGUGCAGGUAGGUCGCUCAAUCCAGUGAUGUUGGAUCAUCCAG [#SwitchBubble 12 #K4Late],472 nM
12,AUGUUUUAUAAACUCAUGGUUUCGACAGAUACCAGCUUCGAGAGGAGCCCUUGGCAGCUGCAUGAGUGAUGUUCAUGUACGAAGA [KL-XTheoA7],265 nM
13,UGCGCUGCCUGAGGAUAUAGAAACGAGUGAUGUUCGUGGAUAAGAGCCAGUGAUGUUGGGUUAUUUCUAGAAGGCAGGCAAAGUA [Exclusion FMN B GF7],104 nM
14,UGUCAUUGGUCGGCCGCCACUCCAUAACGAGUGAUGUUCUAAAAGACGGAUCGAAAGAUCUGUCGGAGGACCGGGACCGAUGACU [FiskerMod 6 - Jieux - Same State - Tryptophan B],1140 nM
15,CCUGCCAGCACGGCCGCCACUUCUAUUGUAUCUAUUUUUGUAAUCCUUUAGGAGUGAUGUUUUUAAAGGACCGGGUGAUGGCUGA [theeternabot_exclusion_KL_Trp_B_14],410 nM
16,AGAAGAGUGAUGUUCUUCUAUAUCUCAGAAGGAGCGACAUUAAUGUCAGGUAGGUCGCUGAGAUGAAAUCUCACACAGAUCUUGG [Arg A SS t8a],125 nM
17,UCGCAUCUCAGAAGGAGCGACAGUGAUUCUGAUAGAAAUCUGAGUGAUGUUCAGAACAGCUGUCAGGUAGGUCGCUGAGAUGCGA [Arg B Ex t8],314 nM
18,AAGGGCGGGACUUCCUCGCCGGAUAGAGAUACCAGCCCUGCAAAGGGCCCUUGGCAGCUCACUGACCUCAGUGAUGUUGAGGUUC [Maanveri],223 nM
19,CCCGCGUCGUUAGUGAUGUUGACUUCUGAUACCAGUCGCAGGUAGGACCCUUGGCAGCAGCAGUUUUGUUAUAUGUAGGAUCCAG [theeternabot_exclusion_KL_Theo_A_36],490 nM
20,UCCUACGAGGUAACGUGGAUAUCUCGUUGCAAGGAUAUCUGGAAACAGAGAAGGUGCAACAUUAUCAGCAGUGAUGUUGCUGACC,329 nM
21,AGUAUGUAAUAUGGCAUAUUUAGAACUGAAGGAGCGCCGAAUAAGGCAGGUAGGUCGCGGAAAUAUGAGUGAUGUUCAUGUUUAA [KL-SSArg-A25],82.8 nM
22,GGUAGCAUGGCGGCCGCCACUACAAGUAGUGACCCAAGUGAUGUUUGGAAGCGGGUCCUAAUUGGUAGGACCGGGCCAUGCUACC,566 nM

row,Sequence,apparent KD of K4 kissing-loop reporter
1,AGGAUGUAGUGAUGUUAUAUAAGAAGUAAACGAGGACCGGUACGGCCGCCACUCGAAGCGGCUACUAGCGCGUUGCGAGGUGUGC [ExTryptoA.Ce],378 nM
2,UCAAACGAUGGAAGGAGCGCUCGUCAGUCCUGCGAGUGAUGUUCGUGGGUAAAUAGUCGCGAGCAGGUAGGUCGCCAUCUUAAGC [Bisodi],113 nM
3,AUUAAUUUCAGAGGAUAUCGUAAUUUUAUUUAAUUUAUUCAUUUAUGCAGUGAUGUUGCUAAUAUUCGAGAAGGCUGAUUUAUAA [JR_ExcFMNB_Sub007],52.2 nM
4,CGCACACUUGUUGAUACCAGAAGCCGACCGGAAACAUCAUUGAGUGAUGUUCAAGCUGUUUUCCCUUGGCAGCAAACGAGUGGUC [theeternabot_exclusion_KL_Theo_B_22],138 nM
5,GGGCUGGUGCUAGGAUAUGCGAUGAAUGCUCAGGAAACCUUGAGUCCGCAGUGAUGUUGCGGCACCGCAGAAGGAGCUUAGGCUC [Esbequ],172 nM
6,CAUAUAUACACUAACCCGUACGGUAGUAAGCGAGGACCGGUACGGCCGCCACUCGAUCGUUUCGUGUUAGCACCAGUGAUGUUGG [theeternabot_sameState_KL_Trp_A_3],392 nM
7,CCAGCGGGCACGGCCGCCACUCUCUCGAGUGAUGUUUGCGGAGUCAGGCCGGCUCAGUACGUCACGAGGACCGGGUGCAAUUUAC [theeternabot_exclusion_KL_Trp_B_40],460 nM
8,ACGUAUAUCAGAGGAUAUCGUAUUAAUAUUUUAUCUAUAUAUAUAUGCAGUGAUGUUGCUAUAAUUCGAGAAGGCUGAUUUACGA [JR_ExcFMNB_Sub011],81.4 nM
9,UUUAUAAAGUCGGCCGCCACUGGAUUUAUAUUUGUUUAAUCUGGAUCAAAGUGAUGUUUUGAGUCCAGGACCGGGACAUUUGUUA [JR_ExcTryptoB_Sub002],232 nM
10,GAGGGCCCUGUAGGAUAUGAGUCUAGUGAUGUUAGGCGGUCCAUGCGCGUGGCGCGUUAUGCCCUUUUAGAAGGACAGGGCUCUC [#2 Exclusion - FMN B Attempt #21 (HarryS)],84.7 nM
11,ACGCUAGCUACCGAAAGGUAGCUAGCGAGUGAGGAUAUGUGGAAACACAGAAGGCACAGCGCAGUGAUGUUGUGCGGCGGAAGCG [whbob_SS_FMNA__2th168],473 nM
12,UGUGAUGAGUAGAGUGAUGUUUUGAAGGAUACCAGAGUGUUGUUAUUCCCUUGGCAGCUUGAGUGAUGUUUGAUGUUGUUGUUGU [rcrrmullin],211 nM
13,UAGUGGUAGACCAGAUCUACCACUAGGGAUACCAGCCUCGGUCGAGGCCCUUGGCAGCCCAGCGGGUCCAGUGAUGUUGGAUGUC [Raanza],295 nM
14,AUGUGGAGCGACGUUUAGAGAAACCGGGAAGGAGCGCGGAUAACCGCAGGUAGGUCGCCUGGUUGCCAGUGAUGUUGGCGACGUG [Exclusion Arg A GF 25],138 nM
15,UGUCAUUGGUCUGAUACCAGUUAGACCGAUAGGUCAAAACUGGAGUGAUGUUCCCAAAAUAACCCUUGGCAGCAGACCGAUGACU [TheoBS 3 #SwitchBubble #StaticStem],191 nM
16,UGAUACCAGACGGCCGCCACUCCCGUAAGUCAAAGACUUACGAAGAGAAUCGUCCAGUGAUGUUGGAGGACCGGGUCUGGUAUCU [FiskerMod 11 - Jieux - Exclusion - Tryptophan B],785 nM
17,UGUGUUUACCUGACUCAGUGAUGUUGAGAAGGAGCGUGGGAAACCACAGGUAGGUCGCUCAACCUAAAUUCAGGUGAGCACUAAA,231 nM
18,UGAUACCAGACUGAUACCAGCCACAGAGUCAAGACUCUGAUAAAGGUAACCAGUGAUGUUGGCCCUUGGCAGCAGUCUGGUAUCU [TheoBX 16 #SwitchBubble #StaticStem],156 nM
19,GGUGUUGUUUGUGCUGUUUUCUUCGUUUCUCGAGGACCGGUACGGCCGCCACUCGAGUGAUGUUUGGGUAGCGAUCUUUGUUAGU [Bdazzled - #4- Exc. Tryptophan A],385 nM
20,CCAGAAUAAUGAAGAUGAUAAAUUACUGAAGGAGCGCAUAUAGUUGCAGGUAGGUCGCGGUGAAUAAGUAUAGUGAUGUUAUACC [SSArgA.Ad],255 nM
21,AAGUGUGUGGCGGCCGCCACUAGAAUCCAGUGAUGUUGGAGUUAUCAUGUAAAUGAUAAUCAACAUAGGACCGGGCCAUAUAGAA [Same State - Tryptophan B (Freestyle 8)],349 nM

# Reference: the supplement of paper PMC9170038
